# B1: SMB0002: rabbit B cell cloning antibody binding adenosine and ATP; heavy chain SEQ ID NO: 30, light chain SEQ ID NO: 31 (antibody, listed as Oryctolagus cuniculus)
# heavy: CQSVEESGGRLVTPGTPLTLTCTVSGIDLSNYAMGWVRQAPGKGLEWIGIIGADSSTWYPSWVKGRFTISKTSTTVDLKMTSLTTEDTATYFCARGRFVGYTNAFDPWGPGTLVTVSS
# light: AQVLTQTPSSVSAAVGGTVTISCQSSQSVWNNNYLSWYQQKPGQPPKLLIFDASTLASGVPSRFSGRGSGTQFTLTISGVQCEDAATYYCHGSYANSGWYDNAFGGGTEVVVK
# B2: ATNLSA1-4_D12: ATP/adenosine-binding antibody; heavy-chain variable region SEQ ID NO: 48, light-chain variable region SEQ ID NO: 49 (antibody, listed as Homo sapiens, V domains shown)
# VH: QVQLQESGGDLVKPGGFLRLSCAASGFTFNTYTMNWVRQAPGKGLEWLSSISSRSNYINYADSVKGRFTISRDNAKNSLYLQMNSLRAEDTAVYYCARFGRKGDLNWVFDYWGQGTLVTVSS
# VL: QSALTQPPSASGSPGQTVTISCTGTSSDVGGYNYVSWYQQHPGKAPKLMIYEVSKRPSGVPDRFSGSKSGNTASLTVSGLQAEDEADYFCSSYAGSNNVVFGGGTKLTVL
# Legend:
# [1] = SPR binding of SMB0002 to AMP; details: Biacore; read-out: KD of SMB0002 toward AMP
# Procedure: Binding of SMB0002 was assessed at AMP concentrations of 500, 250 (duplicate), 125, 62.5, 31.25, 15.625, and 7.8125 μM.
# [2] = SPR (Biacore T200) binding of SMB0002 to ATP; details: Biacore T200, 25° C., antibody captured on protein A/G; read-out: KD of SMB0002 toward ATP
# Procedure: Biacore T200 (GE Healthcare) was used to analyze interaction in the antigen-antibody reaction with ATP. The antibody of interest was captured onto protein A/G (Invitrogen) immobilized in an appropriate amount onto Sensor chip CM5 (GE Healthcare) by the amine coupling method, and ATP which is the antigen was allowed to interact. The running buffer used was 10 mmol/L ACES, 150 mmol/L NaCl, 0.05% (w/v) Tween 20, pH 7.4. All measurements were carried out at 25° C. The antigen was diluted with running buffer.
# (§1) Then, running buffer was run at a flow rate of 20 μL/min for three minutes and dissociation of the antigen from the antibody was observed. Next, 10 mmol/L glycine-HCl, pH 1.5, was injected at a flow rate of 30 μL/min for 30 seconds to regenerate the sensor chip. Kinetic parameters such as the association rate constant ka (1/Ms) and the dissociation rate constant kd (l/s) were calculated based on the sensorgrams obtained by the measurements. The dissociation constant KD (M) was calculated from these constants. Each parameter was calculated using the Biacore T200 Evaluation Software (GE Healthcare).
# [3] = competitive ELISA of 2′-Adenosine-PEG-Biotin-binding clones with adenosine and ATP; details: 50 nM 2′-Adenosine-PEG-Biotin with 500 μM adenosine or ATP; absorbance at 405 nm
# Procedure: To immobilize the antibodies, the plate was allowed to stand for one hour or more at room temperature. After the antibodies diluted with PBS were removed from each well, TBS containing 1% BSA was added thereto and the plate was allowed to stand for one hour or more. Then, the TBS (pH 7.4) containing 1% BSA was removed from the plate. 2′-Adenosine-PEG-Biotin diluted to 50 nM with PBS, a mixture of 2′-Adenosine-PEG-Biotin and adenosine diluted to 50 nM and 500 μM respectively with PBS, a mixture of 2′-Adenosine-PEG-Biotin and ATP diluted to 50 nM and 500 μM respectively with PBS, or PBS alone was added to the plate. The plate was allowed to stand at room temperature for one hour, and then washed three times with 80 μl of PBS containing 0.05% Tween-20. Then, Streptavidin-HRP (Thermo fisher scientific) diluted 20000 times with PBS was added to each well, and the plate was allowed to stand for one hour or more at room temperature. After the plate was washed three times with 80 μl of PBS containing 0.05% Tween-20, a chromogenic substrate (ABTS peroxidase substrate) was added to each well. After the plate was incubated for one hour, color development in the solution of each well was assessed by measuring absorbance at 405 nm using SpectraMax from Molecular Device.
# [4] = SPR binding of SMB0002 to ADP; details: Biacore, NaCl concentration 600 mM; read-out: KD of SMB0002 toward ADP
# Procedure: Binding to ADP was assessed by a method similar to the measurement method using Biacore described in Example 3-2, except that the NaCl concentration was changed to 600 mM. Binding of SMB0002 was assessed at ADP concentrations of 2000, 1000 (duplicate), 500, 250, 250, 125, 62.5, and 31.3 μM.
# [5] = SPR (Biacore T200) binding of SMB0002 to adenosine; details: Biacore T200, 25° C., antibody captured on protein A; read-out: KD of SMB0002 toward adenosine
# Procedure: Using Biacore T200 (GE Healthcare), the antibody SMB0002 obtained by the B cell cloning method was analyzed for its interaction with adenosine in antigen-antibody reaction. Sensor chip CM5 (GE Healthcare) was immobilized with an appropriate amount of protein A (Invitrogen) by amine coupling. Antibodies of interest were captured by the chip to allow interaction to adenosine as an antigen. The running buffer used was 50 mmol/1 TrisHCl, 150 mmol/1 NaCl, 0.02% (w/v) Tween20, pH 7.6. All measurements were carried out at 25° C. The antigens were diluted using the running buffer.
# as §1, with “of 30” for “of 20”, “for four” for “for three”, “was loaded” for “was injected”
# [6] = SPR (Biacore T200) binding of D12 and variants to adenosine; details: Biacore T200, 15° C., corrected with 20 μmo1/1 ADP, Formula 2
# Procedure: (§2) Sensor chip CM5 or CM4 (GE Healthcare) was immobilized with an appropriate amount of protein A (Life technologies) by amine coupling. The antibody of interest was captured by the chip to allow interaction with ATP (Wako), adenosine (Wako), or ADP (adenosine diphosphate) (Wako) as an antigen. The running buffer used was 50 mM Tris-HCl (Takara, T903), 500 mM NaCl, 0.01% (w/v) Tween20. The antigen was allowed to interact for 30 seconds at a flow rate of 30 μl/min, and was dissociated for 30 seconds. The interaction with the antigen was assessed at 15° C. The antigen was diluted using the same running buffer.
# (§3) The dissociation constant KD (M) was calculated based on the association rate constant ka (1/Ms) and dissociation rate constant kd (l/s), both of which are kinetic parameters calculated from the sensorgram obtained by the measurement. Alternatively, the dissociation constant KD (M) was calculated using steady state analysis. Each parameter was calculated using the Biacore T200 Evaluation Software (GE Healthcare).
# To calculate the KD for adenosine, the binding response was assessed at various concentrations of adenosine in the presence or absence of 20 μmo1/1 ADP. In addition, the binding response was separately assessed in the presence of 20 μmo1/1 ADP. […]
# [7] = SPR (Biacore T200) binding of D12 and ATNLSA1-4_D12 variants to ATP; details: Biacore T200, 15° C., 500 mM NaCl
# Procedure: as §2, §3
# Based on the assay result, the affinity of each variant for ATP was calculated as a KD value. […]
# It was determined that amino acids substituted at the sites could be included in a library (flexible residues to be introduced into a library).
# [8] = phage ELISA for binding to ATP-PEG-biotin
# Procedure: (§4) Next, for the purpose of confirming to which antigen of 2′-adenosine-PEG-biotin, 5′-adenosine-PEG-biotin, and ATP-PEG-biotin these clones have binding ability, the purified phages diluted with TBS were subjected to ELISA by the following procedure. A StreptaWell 96 microtiter plate (Roche) was coated at room temperature for one hour with 100 μl of TBS containing a biotin-labeled antigen (2′-adenosine-PEG-biotin, 5′-adenosine-PEG-biotin, or ATP-PEG-biotin). After the antigens were removed by washing each well of the plate with TBST, the wells were blocked with 250 μl of 2% skim milk/TBS for one hour or more. 2% skim milk/TBS was removed, and then the prepared, purified phages were added to each well. The plate was allowed to stand at room temperature for one hour to allow binding of antibody-displaying phages to antigens in each well. After TBST wash, a HRP-conjugated anti-M13 antibody (Amersham Pharmacia Biotech) diluted with TBS was added to each well. The plate was incubated for one hour. Following TBST wash, the TMB single solution (ZYMED) was added to each well. The chromogenic reaction in the solution of each well was terminated by adding sulfuric acid. Then, the developed color was assessed by measuring absorbance at 450 nm.
# [9] = competitive phage ELISA with ATP; type: binding; details: ATP from equal amount up to 10000 times that of the antigen
# Procedure: ATNLSA1-4_D12 and PF1 were each diluted with TBS and subjected to ELISA by the following procedure.
# A StreptaWell 96 microtiter plate (Roche) was coated at room temperature for one hour with 100 μl of TBS containing biotin-labeled antigens (a mixture of 5′-adenosine-PEG-biotin and ATP-PEG-biotin). After the antigens were removed by washing each well of the plate with TBST, the wells were blocked with 250 μl of 2% skim milk/TBS for one hour or more. 2% skim milk/TBS was removed, and then the prepared, purified phages were added to each well. The plate was allowed to stand at room temperature for one hour to allow binding of the antibody-displaying phages to the antigens in each well. […] For the competition of the immobilized antigen with ATP, the plate was allowed to stand at room temperature for one hour. Then, after TBST wash, an HRP-conjugated anti-M13 antibody (Amersham Pharmacia Biotech) diluted with TBS was added to each well. The plate was incubated for one hour. Following TBST wash, the TMB single solution (ZYMED) was added to each well. The chromogenic reaction in the solution of each well was terminated by adding sulfuric acid. Then, the developed color was assessed by measuring absorbance at 450 nm.
# [10] = phage ELISA for binding to 5′-adenosine-PEG-biotin
# Procedure: as §4
# [11] = Tm measurement by DSC
# Procedure: Measurement by DSC was carried out by a method known to those skilled in the art.
# DSC measurement was carried out by a method known to those skilled in the art.
# [12] = SPR (Biacore T200) binding of D12 to ADP; details: Biacore T200, 15° C., 500 mM NaCl
# Procedure: as §2, §3
Molecule,Kd [1] [µM],Kd [2] [µM],binding to 2′-Adenosine-PEG-Biotin on adding excess amounts of adenosine and ATP [3],Kd [4] [µM],Kd [5] [nM],Kd [6] [mM],Kd [7] [µM],binding to ATP-PEG-biotin [8],binding to biotin-labeled antigen with ATP as competitor [9],binding to 5′-Adenosine-PEG-biotin [10],Tm [11] [°C],Kd [12] [nM]
B1,59,10,inhibited,240,15,,,,,,,
B2,,,,,,1.1,8.5,ability to bind,inhibited in an ATP concentration-dependent manner,ability to bind,74.37,250

# — patent US20210180049A1 (CHUGAI SEIYAKU KABUSHIKI KAISHA, priority 2013, published 2021)
